Reference: article PMC5563082, “Structural Mechanism for Modulation of Synaptic Neuroligin-Neurexin Signaling by MDGA Proteins” (Neuron, 2017)

T1: human MDGA2 extracellular domain (MDGA2_(ECTO); Gln21-Lys927) (human, UniProt Q7Z553 21-927)
T1 construct: human MAM domain-containing glycosylphosphatidylinositol anchor protein 2, Gln21-Lys927; Not deglycosylated; source: HEK293T, transient transfection, purified (IMAC, SEC)
T1 sequence (looked up): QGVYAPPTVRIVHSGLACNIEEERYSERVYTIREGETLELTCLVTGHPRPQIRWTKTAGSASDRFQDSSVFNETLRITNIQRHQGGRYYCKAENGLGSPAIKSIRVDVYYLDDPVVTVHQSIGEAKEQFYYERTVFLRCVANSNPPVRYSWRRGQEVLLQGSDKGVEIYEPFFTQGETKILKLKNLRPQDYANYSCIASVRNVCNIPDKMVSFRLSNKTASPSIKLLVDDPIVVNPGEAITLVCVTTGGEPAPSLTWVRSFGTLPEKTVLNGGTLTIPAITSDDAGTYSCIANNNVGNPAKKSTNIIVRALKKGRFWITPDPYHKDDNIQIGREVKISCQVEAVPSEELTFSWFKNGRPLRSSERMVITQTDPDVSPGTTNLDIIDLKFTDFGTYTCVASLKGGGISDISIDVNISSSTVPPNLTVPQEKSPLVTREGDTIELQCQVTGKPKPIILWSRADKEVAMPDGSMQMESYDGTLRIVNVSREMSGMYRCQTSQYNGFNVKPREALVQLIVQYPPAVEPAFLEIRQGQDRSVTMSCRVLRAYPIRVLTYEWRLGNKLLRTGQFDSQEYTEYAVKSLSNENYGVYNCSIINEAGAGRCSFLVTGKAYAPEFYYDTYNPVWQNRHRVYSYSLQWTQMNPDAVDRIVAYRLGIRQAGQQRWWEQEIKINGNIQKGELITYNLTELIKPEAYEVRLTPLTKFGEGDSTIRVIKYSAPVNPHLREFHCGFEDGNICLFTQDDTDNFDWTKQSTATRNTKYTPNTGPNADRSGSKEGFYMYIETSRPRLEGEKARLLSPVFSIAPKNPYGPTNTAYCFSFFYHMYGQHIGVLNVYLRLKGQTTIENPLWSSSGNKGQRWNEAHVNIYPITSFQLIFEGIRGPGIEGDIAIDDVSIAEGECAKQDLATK

T2: human MDGA1 extracellular domain (MDGA1_(ECTO); Gln19-Lys925) (human, UniProt Q8NFP4-1 19-925)
T2 construct: human MAM domain-containing glycosylphosphatidylinositol anchor protein 1, Gln19-Lys925; Not deglycosylated; also called human MDGA1_(ECTO); source: HEK293T, transient transfection, purified (IMAC, SEC)
T2 sequence (looked up): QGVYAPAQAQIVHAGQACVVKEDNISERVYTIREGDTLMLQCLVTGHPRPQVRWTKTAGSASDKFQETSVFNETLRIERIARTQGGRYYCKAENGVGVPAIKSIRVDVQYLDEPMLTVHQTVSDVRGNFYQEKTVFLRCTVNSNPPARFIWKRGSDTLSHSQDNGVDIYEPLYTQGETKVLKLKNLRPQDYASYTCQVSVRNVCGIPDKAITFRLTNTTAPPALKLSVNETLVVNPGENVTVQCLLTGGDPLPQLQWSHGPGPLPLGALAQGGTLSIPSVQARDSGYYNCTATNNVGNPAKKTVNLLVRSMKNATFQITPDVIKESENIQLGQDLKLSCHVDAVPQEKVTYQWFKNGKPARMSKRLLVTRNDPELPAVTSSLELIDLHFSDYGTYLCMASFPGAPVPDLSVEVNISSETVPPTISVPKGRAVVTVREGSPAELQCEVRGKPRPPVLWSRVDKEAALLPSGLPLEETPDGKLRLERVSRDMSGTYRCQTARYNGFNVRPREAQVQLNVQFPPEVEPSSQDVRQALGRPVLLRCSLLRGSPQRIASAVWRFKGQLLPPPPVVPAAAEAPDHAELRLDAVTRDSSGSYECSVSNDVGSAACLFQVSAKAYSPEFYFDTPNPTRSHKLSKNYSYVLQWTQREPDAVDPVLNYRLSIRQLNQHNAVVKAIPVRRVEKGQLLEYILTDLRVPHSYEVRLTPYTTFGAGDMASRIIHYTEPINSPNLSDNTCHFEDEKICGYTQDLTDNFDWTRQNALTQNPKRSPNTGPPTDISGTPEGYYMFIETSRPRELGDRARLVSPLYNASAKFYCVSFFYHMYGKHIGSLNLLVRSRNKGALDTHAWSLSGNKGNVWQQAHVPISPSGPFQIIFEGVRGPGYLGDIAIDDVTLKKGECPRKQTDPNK

B1: human NL4_(ECTO) (NL4(X); Gln42-Glu602), immobilised for SPR (domain or fragment)
chain: QAQYPVVNTNYGKIRGLRTPLPNEILGPVEQYLGVPYASPPTGERRFQPPEPPSSWTGIRNTTQFAAVCPQHLDERSLLHDMLPIWFTANLDTLMTYVQDQNEDCLYLNIYVPTEDDIHDQNSKKPVMVYIHGGSYMEGTGNMIDGSILASYGNVIVITINYRLGILGFLSTGDQAAKGNYGLLDQIQALRWIEENVGAFGGDPKRVTIFGSGAGASCVSLLTLSHYSEGLFQKAIIQSGTALSSWAVNYQPAKYTRILADKVGCNMLDTTDMVECLRNKNYKELIQQTITPATYHIAFGPVIDGDVIPDDPQILMEQGEFLNYDIMLGVNQGEGLKFVDGIVDNEDGVTPNDFDFSVSNFVDNLYGYPEGKDTLRETIKFMYTDWADKENPETRRKTLVALFTDHQWVAPAVATADLHAQYGSPTYFYAFYHHCQSEMKPSWADSAHGDEVPYVFGIPMIGPTELFSCNFSKNDVMLSAVVMTYWTNFAKTGDPNQPVPQDTKFIHTKPNRFEEVAWSKYNPKDQLYLHIGLKPRVRDHYRATKVAFWLELVPHLHNLNE
modifications: biotin on the Avitag (in vivo biotinylation by BirA)
notes: human neuroligin-4 (X-linked), Gln42-Glu602; source: HEK293T, co-transfected with ER-resident BirA; dialysed conditioned medium, captured on streptavidin chip
B2: human NL2(–A)_(ECTO) (Glu38-His612), immobilised for SPR (domain or fragment, UniProt Q8NFZ4 38-612, looked up)
chain: EERFPVVNTAYGRVRGVRRELNNEILGPVVQFLGVPYATPPLGARRFQPPEAPASWPGVRNATTLPPACPQNLHGALPAIMLPVWFTDNLEAAATYVQNQSEDCLYLNLYVPTEDDIRDPGKKPVMLFLHGGSYMEGTGNMFDGSVLAAYGNVIVATLNYRLGVLGFLSTGDQAAKGNYGLLDQIQALRWLSENIAHFGGDPERITIFGSGAGASCVNLLILSHHSEGLFQKAIAQSGTAISSWSVNYQPLKYTRLLAAKVGCDREDSAEAVECLRRKPSRELVDQDVQPARYHIAFGPVVDGDVVPDDPEILMQQGEFLNYDMLIGVNQGEGLKFVEDSAESEDGVSASAFDFTVSNFVDNLYGYPEGKDVLRETIKFMYTDWADRDNGEMRRKTLLALFTDHQWVAPAVATAKLHADYQSPVYFYTFYHHCQAEGRPEWADAAHGDELPYVFGVPMVGATDLFPCNFSKNDVMLSAVVMTYWTNFAKTGDPNQPVPQDTKFIHTKPNRFEEVVWSKFNSKEKQYLHIGLKPRVRDNYRANKVAFWLELVPHLHNLH
modifications: biotin on the Avitag (in vivo biotinylation by BirA)
notes: also called NL2_(ECTO); source: HEK293T, co-transfected with ER-resident BirA; dialysed conditioned medium, captured on streptavidin chip
B3: human NL3(–A)_(ECTO) (Gln38-Asp636), immobilised for SPR (domain or fragment, UniProt Q9NZ94-1 38-636, looked up)
chain: QAPAPTVNTHFGKLRGARVPLPSEILGPVDQYLGVPYAAPPIGEKRFLPPEPPPSWSGIRNATHFPPVCPQNIHTAVPEVMLPVWFTANLDIVATYIQEPNEDCLYLNVYVPTEDDIRDSGAKPVMVYIHGGSYMEGTGNMIDGSILASYGNVIVITLNYRVGVLGFLSTGDQAAKGNYGLLDQIQALRWVSENIAFFGGDPRRITVFGSGIGASCVSLLTLSHHSEGLFQRAIIQSGSALSSWAVNYQPVKYTSLLADKVGCNVLDTVDMVDCLRQKSAKELVEQDIQPARYHVAFGPVIDGDVIPDDPEILMEQGEFLNYDIMLGVNQGEGLKFVEGVVDPEDGVSGTDFDYSVSNFVDNLYGYPEGKDTLRETIKFMYTDWADRDNPETRRKTLVALFTDHQWVEPSVVTADLHARYGSPTYFYAFYHHCQSLMKPAWSDAAHGDEVPYVFGVPMVGPTDLFPCNFSKNDVMLSAVVMTYWTNFAKTGDPNKPVPQDTKFIHTKANRFEEVAWSKYNPRDQLYLHIGLKPRVRDHYRATKVAFWKHLVPHLYNLHD
modifications: biotin on the Avitag (in vivo biotinylation by BirA)
notes: also called NL3_(ECTO); source: HEK293T, co-transfected with ER-resident BirA; dialysed conditioned medium, captured on streptavidin chip
B4: human NL2(+A)_(ECTO), immobilised for SPR (domain or fragment, UniProt Q8NFZ4 38-612, looked up)
chain: EERFPVVNTAYGRVRGVRRELNNEILGPVVQFLGVPYATPPLGARRFQPPEAPASWPGVRNATTLPPACPQNLHGALPAIMLPVWFTDNLEAAATYVQNQSEDCLYLNLYVPTEDGPLTKKRDEATLNPPDTDIRDPGKKPVMLFLHGGSYMEGTGNMFDGSVLAAYGNVIVATLNYRLGVLGFLSTGDQAAKGNYGLLDQIQALRWLSENIAHFGGDPERITIFGSGAGASCVNLLILSHHSEGLFQKAIAQSGTAISSWSVNYQPLKYTRLLAAKVGCDREDSAEAVECLRRKPSRELVDQDVQPARYHIAFGPVVDGDVVPDDPEILMQQGEFLNYDMLIGVNQGEGLKFVEDSAESEDGVSASAFDFTVSNFVDNLYGYPEGKDVLRETIKFMYTDWADRDNGEMRRKTLLALFTDHQWVAPAVATAKLHADYQSPVYFYTFYHHCQAEGRPEWADAAHGDELPYVFGVPMVGATDLFPCNFSKNDVMLSAVVMTYWTNFAKTGDPNQPVPQDTKFIHTKPNRFEEVVWSKFNSKEKQYLHIGLKPRVRDNYRANKVAFWLELVPHLHNLH
modifications: biotin on the Avitag (in vivo biotinylation by BirA)
notes: source: HEK293T, co-transfected with ER-resident BirA; dialysed conditioned medium, captured on streptavidin chip
B5: human NL3(+A1)_(ECTO), immobilised for SPR (domain or fragment, UniProt Q9NZ94-1 38-636, looked up)
chain: QAPAPTVNTHFGKLRGARVPLPSEILGPVDQYLGVPYAAPPIGEKRFLPPEPPPSWSGIRNATHFPPVCPQNIHTAVPEVMLPVWFTANLDIVATYIQEPNEDCLYLNVYVPTEDVKRISKECARKPNKKICRKGDIRDSGAKPVMVYIHGGSYMEGTGNMIDGSILASYGNVIVITLNYRVGVLGFLSTGDQAAKGNYGLLDQIQALRWVSENIAFFGGDPRRITVFGSGIGASCVSLLTLSHHSEGLFQRAIIQSGSALSSWAVNYQPVKYTSLLADKVGCNVLDTVDMVDCLRQKSAKELVEQDIQPARYHVAFGPVIDGDVIPDDPEILMEQGEFLNYDIMLGVNQGEGLKFVEGVVDPEDGVSGTDFDYSVSNFVDNLYGYPEGKDTLRETIKFMYTDWADRDNPETRRKTLVALFTDHQWVEPSVVTADLHARYGSPTYFYAFYHHCQSLMKPAWSDAAHGDEVPYVFGVPMVGPTDLFPCNFSKNDVMLSAVVMTYWTNFAKTGDPNKPVPQDTKFIHTKANRFEEVAWSKYNPRDQLYLHIGLKPRVRDHYRATKVAFWKHLVPHLYNLHD
modifications: biotin on the Avitag (in vivo biotinylation by BirA)
notes: as for B4
B6: human NL5_(ECTO) (NL4(Y); Gln42-Glu602), immobilised for SPR (domain or fragment)
chain: QAQYPVVNTNYGKIQGLRTPLPSEILGPVEQYLGVPYASPPTGERRFQPPESPSSWTGIRNATQFSAVCPQHLDERFLLHDMLPIWFTTSLDTLMTYVQDQNEDCLYLNIYVPMEDDIHEQNSKKPVMVYIHGGSYMEGTGNMIDGSILASYGNVIVITINYRLGILGFLSTGDQAAKGNYGLLDQIQALRWIEENVGAFGGDPKRVTIFGSGAGASCVSLLTLSHYSEGLFQKAIIQSGTALSSWAVNYQPAKYTRILADKVGCNMLDTTDMVECLKNKNYKELIQQTITPATYHIAFGPVIDGDVIPDDPQILMEQGEFLNYDIMLGVNQGEGLKFVDGIVDNEDGVTPNDFDFSVSNFVDNLYGYPEGKDTLRETIKFMYTDWADKENPETRRKTLVALFTDHQWVAPAVATADLHAQYGSPTYFYAFYHHCQSEMKPSWADSAHGDEVPYVFGIPMIGPTELFSCNFSKNDVMLSAVVMTYWTNFAKTGDPNQPVPQDTKFIHTKPNRFEEVAWSKYNPKDQLYLHIGLKPRVRDHYRATKVAFWLELVPHLHNLNE
modifications: biotin on the Avitag (in vivo biotinylation by BirA)
notes: human neuroligin-5 (neuroligin-4, Y-linked), Gln42-Glu602; source: HEK293T, co-transfected with ER-resident BirA; dialysed conditioned medium, captured on streptavidin chip

How the values were obtained:
[1] = target: T1, human MDGA2 extracellular domain …; experiment: SPR; biotinylated NL_(ECTO)-Avitag variants captured from dialysed conditioned medium on streptavidin CM5 chip (500 RU; 550 RU for the ΔSite series; 1000 RU for NL3 and NL3 Arg451Cys in the R451C series); β-NRX1_(LNS6)(±4), MDGA1_(ECTO), MDGA2_(ECTO) injected, 15 concentrations, two-fold series from 50 μM; TBS-CTB (10 mM Tris pH 7.4, 150 mM NaCl, 3 mM CaCl2, 0.005% Tween-20, 1.0 g/L BSA); equilibrium analysis, 1:1 …; details: both partners purified
[2] = target: T2, human MDGA1 extracellular domain …; experiment: as above; details: both partners purified

Row | Binder | binding result [1] | binding result [2] | Kd [1] [nM] | Kd [2] [nM]
1 | B1 | binds | binds | – | –
2 | B2 | – | – | ~1000 | ~2000
3 | B3 | binds | binds | – | –
4 | B4 | binds | binds | – | –
5 | B5 | binds | binds | – | –
6 | B6 | binds | binds | – | –
